Results as given in the supplement of paper PMC5998384.

Columns and labels:
[1] = test system: HeLa Kyoto; assay: solubility in G1/S (NP-40 vs SDS abundance) (log2 ratio); higher = more soluble; settings: cell cycle stage: G1/S
[2] = test system: HeLa Kyoto; assay: melting temperature (median over replicates), in situ; higher = more thermally stable
[3] = test system: HeLa Kyoto; assay: solubility change mitosis vs G1/S (difference of NP-40 vs SDS log2 ratios) (log2 ratio difference); higher = more soluble in mitosis
[4] = test system: HeLa Kyoto; assay: thermal stability score vs G1/S (z-score of summed log2 fold changes over temperatures); higher = more thermally stable than in G1/S
[5] = cell cycle stage: early G1 (4.5 h after nocodazole release)
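Wherever melting temperature (median over replicates), in situ is given: HeLa Kyoto cells synchronized by double thymidine or nocodazole block, proteins quantified by TMT10plex mass spectrometry, three independent biological replicates.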
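Wherever solubility change mitosis vs G1/S (difference of NP-40 vs SDS log2 ratios) is given: synchronized HeLa Kyoto cells (double thymidine block for G1/S, nocodazole release for mitosis), protein amounts in NP-40 versus SDS lysates quantified by mass spectrometry, three biological replicates.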
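Wherever solubility in G1/S (NP-40 vs SDS abundance) is given: HeLa Kyoto cells arrested at G1/S by double thymidine block, proteins quantified by TMT10plex mass spectrometry in mild NP-40 versus SDS extracts, three biological replicates.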
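Wherever thermal stability score vs G1/S (z-score of summed log2 fold changes over temperatures) is given: synchronized HeLa Kyoto cells, proteins quantified by TMT10plex mass spectrometry, three biological replicates, mitosis taken 0.5 h after nocodazole release, G1/S directly after double thymidine block.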

| Substance | solubility in G1/S (log2) [1] | melting temperature ([2]; cell cycle stage: G1/S) [°C] | melting temperature ([2]; cell cycle stage: mitosis) [°C] | solubility change mitosis (log2) [3] | thermal stability score [4, 5] | thermal stability score ([4]; cell cycle stage: mitosis) |
| --- | --- | --- | --- | --- | --- | --- |
| MSRKGPRAEVCADCSAPDPGWASISRGVLVCDECCSVHRSLGRHISIVKHLRHSAWPPTLLQMVHTLASNGANSIWEHSLLDPAQVQSGRRKANPQDKVHPIKSEFIRAKYQMLAFVHKLPCRDDDGVTAKDLSKQLHSSVRTGNLETCLRLLSLGAQANFFHPEKGTTPLHVAAKAGQTLQAELLVVYGADPGSPDVNGRTPIDYARQAGHHELAERLVECQYELTDRLAFYLCGRKPDHKNGHYIIPQMADSLDLSELAKAAKKKLQALSNRLFEELAMDVYDEVDRRENDAVWLATQNHSTLVTERSAVPFLPVNPEYSATRNQGRQKLARFNAREFATLIIDILSEAKRRQQGKSLSSPTDNLELSLRSQSDLDDQHDYDSVASDEDTDQEPLRSTGATRSNRARSMDSSDLSDGAVTLQEYLELKKALATSEAKVQQLMKVNSSLSDELRRLQREIHKLQAENLQLRQPPGPVPTPPLPSERAEHTPMAPGGSTHRRDRQAFSMYEPGSALKPFGGPPGDELTTRLQPFHSTELEDDAIYSVHVPAGLYRIRKGVSASAVPFTPSSPLLSCSQEGSRHTSKLSRHGSGADSDYENTQSGDPLLGLEGKRFLELGKEEDFHPELESLDGDLDPGLPSTEDVILKTEQVTKNIQELLRAAQEFKHDSFVPCSEKIHLAVTEMASLFPKRPALEPVRSSLRLLNASAYRLQSECRKTVPPEPGAPVDFQLLTQQVIQCAYDIAKAAKQLVTITTREKKQ [GIT1] | 0.235 | 48.4 | 50 | -0.123 | 0.709 | 0.998 |
| MEPAEQPSELVSAEGRNRKAVLCQRCGSRVLQPGTALFSRRQLFLPSMRKKPALSDGSNPDGDLLQEHWLVEDMFIFENVGFTKDVGNIKFLVCADCEIGPIGWHCLDDKNSFYVALERVSHE [RABIF] | 0.225 | 52.2 | 51.7 | -0.0782 | 0.827 | 0.411 |
| MNGRADFREPNAEVPRPIPHIGPDYIPTEEERRVFAECNDESFWFRSVPLAATSMLITQGLISKGILSSHPKYGSIPKLILACIMGYFAGKLSYVKTCQEKFKKLENSPLGEALRSGQARRSSPPGHYYQKSKYDSSVSGQSSFVTSPAADNIEMLPHYEPIPFSSSMNESAPTGITDHIVQGPDPNLEESPKRKNITYEELRNKNRESYEVSLTQKTDPSVRPMHERVPKKEVKVNKYGDTWDE [OCIAD1] | 0.219 | 55.9 | 53.1 | 0.225 | -1.09 | -4.47 |
| MSVTLHTDVGDIKIEVFCERTPKTCENFLALCASNYYNGCIFHRNIKGFMVQTGDPTGTGRGGNSIWGKKFEDEYSEYLKHNVRGVVSMANNGPNTNGSQFFITYGKQPHLDMKYTVFGKVIDGLETLDELEKLPVNEKTYRPLNDVHIKDITIHANPFAQ [PPIL3] | 0.455 | 48.9 | 50 | -0.00294 | 1.02 | 1.31 |
| MSEREERRFVEIPRESVRLMAESTGLELSDEVAALLAEDVCYRLREATQNSSQFMKHTKRRKLTVEDFNRALRWSSVEAVCGYGSQEALPMRPAREGELYFPEDREVNLVELALATNIPKGCAETAVRVHVSYLDGKGNLAPQGSVPSAVSSLTDDLLKYYHQVTRAVLGDDPQLMKVALQDLQTNSKIGALLPYFVYVVSGVKSVSHDLEQLHRLLQVARSLFRNPHLCLGPYVRCLVGSVLYCVLEPLAASINPLNDHWTLRDGAALLLSHIFWTHGDLVSGLYQHILLSLQKILADPVRPLCCHYGAVVGLHALGWKAVERVLYPHLSTYWTNLQAVLDDYSVSNAQVKADGHKVYGAILVAVERLLKMKAQAAEPNRGGPGGRGCRRLDDLPWDSLLFQESSSGGGAEPSFGSGLPLPPGGAGPEDPSLSVTLADIYRELYAFFGDSLATRFGTGQPAPTAPRPPGDKKEPAAAPDSVRKMPQLTASAIVSPHGDESPRGSGGGGPASASGPAASESRPLPRVHRARGAPRQQGPGTGTRDVFQKSRFAPRGAPHFRFIIAGRQAGRRCRGRLFQTAFPAPYGPSPASRYVQKLPMIGRTSRPARRWALSDYSLYLPL [TAF6L] | 0.0555 | 49.3 | 49.5 | -0.115 | 0.603 | 1.02 |
| KIF13A | -0.0515 | 51.9 | 51.4 | -0.102 | -0.212 | -0.151 |
| MYGASGGRAKPERKSGAKEEAGPGGAGGGGSRVELLVFGYACKLFRDDERALAQEQGQHLIPWMGDHKILIDRYDGRGHLHDLSEYDAEYSTWNRDYQLSEEEARIEALCDEERYLALHTDLLEEEARQEEEYKRLSEALAEDGSYNAVGFTYGSDYYDPSEPTEEEEPSKQREKNEAENLEENEEPFVAPLGLSVPSDVELPPTAKMHAIIERTASFVCRQGAQFEIMLKAKQARNSQFDFLRFDHYLNPYYKFIQKAMKEGRYTVLAENKSDEKKKSGVSSDNEDDDDEEDGNYLHPSLFASKKCNRLEELMKPLKVVDPDHPLAALVRKAQADSSTPTPHNADGAPVQPSQVEYTADSTVAAMYYSYYMLPDGTYCLAPPPPGIDVTTYYSTLPAGVTVSNSPGVTTTAPPPPGTTPLPPPTTAETSSGATSTTTTTSALAPVAAIIPPPPDVQPVIDKLAEYVARNGLKFETSVRAKNDQRFEFLQPWHQYNAYYEFKKQFFLQKEGGDSMQAVSAPEEAPTDSAPEKPSDAGEDGAPEDAAEVGARAGSGGKKEASSSKTVPDGKLVKASFAPISFAIKAKENDLLPLEKNRVKLDDDSDDDEESKEGQESSSSAANTNPAVAPPCVVVEEKKPQLTQEELEAKQAKQKLEDRLAAAAREKLAQASKESKEKQLQAERKRKAALFLQTLKNPLPEAEAGKIEESPFSVEESSTTPCPLLTGGRPLPTLEVKPPDRPSSKSKDPPREEEKEKKKKKHKKRSRTRSRSPKYHSSSKSRSRSHSKAKHSLPSAYRTVRRSRSRSRSPRRRAHSPERRREERSVPTAYRVSRSPGASRKRTRSRSPHEKKKKRRSRSRTKSKARSQSVSPSKQAAPRPAAPAAHSAHSASVSPVESRGSSQERSRGVSQEKEAQISSAIVSSVQSKITQDLMAKVRAMLAASKNLQTSAS [SFSWAP] | -0.526 | 50.4 | 50.6 | 0.468 | -0.391 | -0.0438 |
| MTTETGPDSEVKKAQEEAPQQPEAAAAVTTPVTPAGHGHPEANSNEKHPSQQDTRPAEQSLDMEEKDYSEADGLSERTTPSKAQKSPQKIAKKYKSAICRVTLLDASEYECEVEKHGRGQVLFDLVCEHLNLLEKDYFGLTFCDADSQKNWLDPSKEIKKQIRSSPWNFAFTVKFYPPDPAQLTEDITRYYLCLQLRADIITGRLPCSFVTHALLGSYAVQAELGDYDAEEHVGNYVSELRFAPNQTRELEERIMELHKTYRGMTPGEAEIHFLENAKKLSMYGVDLHHAKDSEGIDIMLGVCANGLLIYRDRLRINRFAWPKILKISYKRSNFYIKIRPGEYEQFESTIGFKLPNHRSAKRLWKVCIEHHTFFRLVSPEPPPKGFLVMGSKFRYSGRTQAQTRQASALIDRPAPFFERSSSKRYTMSRSLDGAEFSRPASVSENHDAGPDGDKRDEDGESGGQRSEAEEGEVRTPTKIKELKPEQETTPRHKQEFLDKPEDVLLKHQASINELKRTLKEPNSKLIHRDRDWERERRLPSSPASPSPKGTPEKANERAGLREGSEEKVKPPRPRAPESDTGDEDQDQERDTVFLKDNHLAIERKCSSITVSSTSSLEAEVDFTVIGDYHGSAFEDFSRSLPELDRDKSDSDTEGLLFSRDLNKGAPSQDDESGGIEDSPDRGACSTPDMPQFEPVKTETMTVSSLAIRKKIEPEAVLQTRVSAMDNTQQVDGSASVGREFIATTPSITTETISTTMENSLKSGKGAAAMIPGPQTVATEIRSLSPIIGKDVLTSTYGATAETLSTSTTTHVTKTVKGGFSETRIEKRIIITGDEDVDQDQALALAIKEAKLQHPDMLVTKAVVYRETDPSPEERDKKPQES [EPB41L1] | -0.0349 | 49.6 | 50 | -0.0516 | 0.332 | 0.235 |
| MAMMVFPREEKLSQDEIVLGTKAVIQGLETLRGEHRALLAPLVAPEAGEAEPGSQERCILLRRSLEAIELGLGEAQVILALSSHLGAVESEKQKLRAQVRRLVQENQWLREELAGTQQKLQRSEQAVAQLEEEKQHLLFMSQIRKLDEDASPNEEKGDVPKDTLDDLFPNEDEQSPAPSPGGGDVSGQHGGYEIPARLRTLHNLVIQYASQGRYEVAVPLCKQALEDLEKTSGHDHPDVATMLNILALVYRDQNKYKEAAHLLNDALAIREKTLGKDHPAVAATLNNLAVLYGKRGKYKEAEPLCKRALEIREKVLGKFHPDVAKQLSNLALLCQNQGKAEEVEYYYRRALEIYATRLGPDDPNVAKTKNNLASCYLKQGKYQDAETLYKEILTRAHEKEFGSVNGDNKPIWMHAEEREESKDKRRDSAPYGEYGSWYKACKVDSPTVNTTLRSLGALYRRQGKLEAAHTLEDCASRNRKQGLDPASQTKVVELLKDGSGRRGDRRSSRDMAGGAGPRSESDLEDVGPTAEWNGDGSGSLRRSGSFGKLRDALRRSSEMLVKKLQGGTPQEPPNPRMKRASSLNFLNKSVEEPTQPGGTGLSDSRTLSSSSMDLSRRSSLVG [KLC2] | 0.526 | 50 | 50.1 | 0.0405 | 0.627 | 1.01 |
